Series [1] has as its target T1, LC8 (DYNLL1), recombinant (human, UniProt P63167 1-89).
T1 construct: also called human LC8
In words: ITC. The settings on record: both partners purified.

The series “SEC-MALS” deals with the molecule itself. Kind of series: SEC-MALS.

In general, Kd refers to the free concentration of one partner at which half of the binding sites on the other are occupied at equilibrium, for simple one-to-one binding. By stoichiometry N is commonly meant the number of molecules, sites or subunits per partner or assembly.

T1 sequence (P63167 whole entry): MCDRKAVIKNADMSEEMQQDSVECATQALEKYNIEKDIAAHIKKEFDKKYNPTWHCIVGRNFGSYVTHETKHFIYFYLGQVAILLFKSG

B1: Zaire Ebolavirus (EBOV) phosphoprotein VP35, construct of residues 65-145 (LC8 anchor 65-82 and mult (domain or fragment)
chain: NPKTRNSQTQTDPICNHSFEEVVQTLASLATVVQQQTIASESLEQRITSLENGLKPVYDMAKTISSLNRVCAEMVAKYDLL
notes: also called VP35 65-145; EBOV VP35 65-145
B1: the dissociation constant (Kd) in series [1] amounted to 0.13 µM. For the same molecule, in “SEC-MALS”, the “stoichiometry N” value was 4.

B2: PMDL, recombinant construct of the human parainfluenza virus 3 phosphoprotein (HPIV3 P): short P_TAI (domain or fragment)
chain: SDHKPTSKGQKKISKTTTTNTDTKGQTETQTESSETQSNVDTASKIDFLAGLVIGVSMDNDTKLIQIQNEMLNLKADLKRMDESHRRLIENQREQLSLITSLISNLKIMT
notes: source: E. coli Rosetta DE3, purified (TALON His-Tag resin, SEC Superdex 75)
For B2, in series [1], the Kd was around 50 µM. In addition, in the series “SEC-MALS”, the “stoichiometry N” value was determined as 4.

For the origin of these results see paper PMC8615749, “Human Parainfluenza Virus 3 Phosphoprotein Is a Tetramer and Shares Structural and Interaction Features with Ebola Phosphoprotein VP35” (Biomolecules, 2021).
